Consider two molecules from patent US20100028924A1, “Method Of Diagnosing Pon1-Hdl Associated Lipid Disorders” (Rappaport Family Institute Research in the Medical Sciences, priority 2006, published 2010).

Data set [1] has as its system apoA-I rHDL. The data set can be described thus: Surface plasmon resonance binding of Δ20-rePON1 192 isozymes to immobilized rHDL-apoA-I. The note with it: relative to the Q isozyme. On the procedure:
FIGS. 2A-C are sensorgrams for the binding of wt Δ20-rePON1-192K—SEQ ID NO:8 (FIG. 2A), Δ20-rePON1-192R—SEQ ID NO:10 (FIG. 2B) and Δ20-rePON1-192Q—SEQ ID NO:12 (FIG. 2C) isozymes to rHDL-apoA-I. Biotinylated rHDL-apoA-I particles were immobilized onto the streptavidin surface (SA chip), and a series of PON1 concentrations were injected over the immobilized and blank surfaces to obtain the net binding response. Binding was performed at 25° C. Association and dissociation phases were fitted to a single exponential, from which kinetic rate constants were derived. PON1 concentrations in all the sensorgrams are (from bottom to top) 25, 40, 60, 80, 100, 150 and 200 nM;
Surface plasmon resonance (SPR) measurements: rHDL-apoA-I particles containing 0.7% of N-biotinyl-dipalmitoylphosphatidylethanolamine (N-biotynyl-DPPE; Avanti Polar Lipids) were prepared and purified as described [Gaidukov, L. and D. S. Tawfik, Biochemistry, 2005. 44(35): p. 11843-54]. SPR was performed on BIAcore 3000 (Uppsala, Sweden) as described [Gaidukov, L. and D. S. Tawfik, Biochemistry, 2005. 44(35): p. 11843-54]. Briefly, the biotinylated rHDL particles were adsorbed on streptavidin (SA5) chip, and Δ20-rePON1 isozymes were injected over the immobilized and blank surfaces to obtain the net binding response. Binding rate constants were obtained by fitting of association and dissociation phases to single exponentials as described [Gaidukov, L. and D. S. Tawfik, Biochemistry, 2005. 44(35): p. 11843-54].
The above results were further supported by affinity measurements using surface plasmon resonance. It was previously shown that HDL affinity of the intact rePON1 is very high (sub-nanomolar) and could not be determined accurately using surface plasmon resonance [Gaidukov, L., and Tawfik, D. S. (2005)Biochemistry 44, 11843-11854]. In contrast, binding affinity of the truncated variant lacking the first 20 amino acids of the hydrophobic N-terminus (Δ20-rePON1) could be amply determined. Therefore, the truncated variants of PON1 192 isozymes were prepared and their HDL binding affinities measured. Typical binding sensorgrams between Δ20-rePON1 isozymes and the immobilized HDL particles are portrayed in FIGS. 2A-C, and the derived rate and affinity constants are summarized in Table 2 herein below.
For orientation: SPR reads the build-up and loss of mass on a sensor chip optically.

Data set [2] concerns apoA-I rHDL. Nature of the data set: Inactivation kinetics of rePON1 192 isozymes bound to rHDL-apoA-I (EDTA/β-mercaptoethanol, residual phenyl acetate hydrolysis). In kind it is biochemical. The note with it: apoA-I rHDL, 50-fold molar excess; EDTA and β-mercaptoethanol, 37° C. On the procedure:
(§1) FIG. 1 is a graph showing the inactivation kinetics of the wild-type rePON1-192K (SEQ ID NO:2), -192R (SEQ ID NO:4) and -192Q (SEQ ID NO:6) isozymes, bound to rHDL-apoA-I, or in buffer. Delipidated enzymes were incubated with a 50-fold excess of rHDL-apoA-I, or in activity buffer, and subjected to inactivation in the presence of EDTA (5 mM) and β-mercaptoethanol (10 mM) at 37° C. Residual activity at various time points was determined by initial rates of phenyl acetate hydrolysis (2 mM) and plotted as percent of the activity at time zero. Data were fitted to a single exponential for wild-type rePON1-192K on rHDL-apoA-I, and to double-exponentials for the remaining samples. The inactivation rate constants and amplitudes were derived from this fit;
(§2) Inactivation rates of rePON1s were measured as described [Gaidukov, L. and D. S. Tawfik, Biochemistry, 2005. 44(35): p. 11843-54]. Briefly, rePON1 samples were delipidated using Bio-Beads SM-2 (BioRad) and incubated in buffer, or with 50-fold molar excess of rHDL-apoA-I. EDTA (10 mM) and β-mercaptoethanol (20 mM) were added, and samples were incubated at 37° C. Residual activity at different time points was determined with 2 mM phenyl acetate, and inactivation rates were fitted to either mono- or double-exponentials [Gaidukov, L. and D. S. Tawfik, Biochemistry, 2005. 44(35): p. 11843-54].
(§3) The resultant inactivation profiles of wt rePON1 (SEQ ID NO: 2), rePON1-192Q (SEQ ID NO: 6) and rePON1-192R (SEQ ID NO: 4), were fitted to exponential curves as illustrated in FIG. 1.

For data set [3], the system named is apoA-I rHDL. The data set can be described thus: Stimulation of enzymatic activity of rePON1 192 isozymes by rHDL-apoA-I. Conditions: for Vmax (%) activation factor: relative to delipidated enzyme (100%). It is filed as biochemical. The text has this: The activity is presented in relation to the initial activity of the delipidated enzymes (percentage of stimulation). Data were fitted to the Langmuir saturation curve, from which the activation factor (Vmax) and the apparent affinity (Kapp) were derived;
Stimulated activity is presented as the percentage of the initial activity of the delipidated enzymes (corresponds to 100%). Data were fitted to the Langmuir saturation curve, from which the activation factor (Vmax) and the apparent affinity (Kapp) were derived;
Delipidated rePONs at 0.2 μM were incubated with a range of rHDL concentrations (0.1-10 μM) for 3 hrs at 37° C. Enzymatic activity was determined in activity buffer (50 mM Tris pH 8.0, 1 mM CaCl2) with substrates at 1 mM concentrations as described [Gaidukov, L. and D. S. Tawfik, Biochemistry, 2005. 44(35): p. 11843-54]. 5-(thiobutyl)-butyrolactone (TBBL) was applied at 0.25 mM, and product formation was monitored spectrophotometrically at 412 nm using 5,5′-dithio-bis-2-nitrobenzoic acid (DTNB) as described [Khersonsky, O. and D. S. Tawfik, Chembiochem, 2006. 7(1): p. 49-53].
Stimulation of the enzymatic activity was examined by incubating rePON1 isozymes with a range of rHDL concentrations (at the HDL/PON ratio of 0.5-50), and measuring the catalytic activity with various substrates as detailed hereinabove. FIGS. 3A-B illustrate the enzymatic activity of the rePON1 isozymes with δ-nonanoic lactone as substrate (FIG. 3A) and thiobutyl butiryl lactone (TBBL) as substrate (FIG. 3B). FIGS. 4A-D illustrate the enzymatic activity of the rePON1 isozymes with γ-dodecanoic lactone as substrate (FIG. 4A), δ-valerolactone as substrate (FIG. 4B), phenyl acetate as substrate (FIG. 4C) and paraoxon as substrate (FIG. 4D). Data were fitted to the Langmuir saturation curve to give the activation factor Vmax (in percent relative to the delipidated PON1) and the apparent affinity Kapp.

Data set [4] in a line: Inactivation kinetics of rePON1 192 isozymes in activity buffer. In kind it is biochemical. The note with it: EDTA and β-mercaptoethanol, 37° C. On the procedure:
as §1, §2, §3

For data set [5], the target named is apoA-I rHDL. Conditions: previously shown; could not be determined accurately by SPR; cited from earlier work.
The mark [6] stands for this setting: substrate γ-dodecanoic lactone 1 mM.
[7] abbreviates: substrate δ-nonanoic lactone 1 mM.

B1: wt rePON1-192K: recombinant wild-type PON1 variant G3C9 with C-terminal His8-tag, lysine at position 192, close homologue of rabbit PON1 (protein)
chain: MAKLTALTLLGLGLALFDGQKSSFQTRFNVHREVTPVELPNCNLVKGVDNGSEDLEILPNGLAFISSGLKYPGIMSFDPDKSGKILLMDLNEEDPVVLELGITGNTLDISSFNPHGISTFTDEDNTVYLLVVNHPDSSSTVEVFKFQEEEKSLLHLKTIRHKLLPSVNDIVAVGPEHFYATNDHYFADPYLKSWEMHLGLAWSFVTYYSPNDVRVVAEGFDFANGINISPDGKYVYIAELLAHKIHVYEKHANWTLTPLKSLDFDTLVDNISVDPVTGDLWVGCHPNGMRIFYYDPKNPPGSEVLRIQDILSEEPKVTVVYAENGTVLQGSTVAAVYKGKLLIGTVFHKALYCEL
modifications: C-terminal His8 tag; WT rePON1-192K
notes: recombinant wild-type PON1 variant G3C9 with C-terminal His8-tag, lysine at position 192, close homologue of rabbit PON1
Regarding B1, in data set [1], the “fold higher HDL binding affinity than the Q isozyme” value was 3 fold. For the same molecule, in data set [2], the “A2 (%) (amplitude of second, slow inactivation phase = HDL-bound fraction)” value is on record as 100%. Besides, the “k2^inactiv (second, slow phase)” value turned out to be 0.01 h⁻¹ in data set [2] and 0.2 h⁻¹ in data set [4]. For the same molecule, the “Kapp (apparent affinity for HDL stimulation)” value worked out at 0.5 ± 0.1 µM in data set [3] (substrate TBBL 0.25 mM); 0.6 ± 0.1 µM in data set [3] (substrate paraoxon 1 mM); 0.5 ± 0.1 µM in data set [3] (substrate phenyl acetate 1 mM); 1.2 ± 0.1 µM in data set [3] (setting [6]); 1.3 ± 0.1 µM in data set [3] (setting [7]); 1.3 ± 0.1 µM in data set [3] (substrate δ-valerolactone 1 mM). Moreover, the “Vmax (%) activation factor” value in data set [3] (substrate TBBL 0.25 mM) turned out to be 791 ± 10%; in data set [3] (substrate paraoxon 1 mM) it was 222 ± 2%; in data set [3] (substrate phenyl acetate 1 mM), 425 ± 4%; in data set [3] (setting [6]) it was 1830 ± 22%; in data set [3] (setting [7]) it was 1580 ± 19%; in data set [3] (substrate δ-valerolactone 1 mM), 1724 ± 23%. Also, the “k1^inactiv (first, fast phase)” value in data set [4] amounted to 4.5 h⁻¹. The “HDL affinity of the intact rePON1” value in data set [5] is given as “sub-nanomolar”.

B2: rePON1-192R: recombinant PON1 with arginine at position 192, generated to mimic the human R isozyme (protein)
chain: MAKLTALTLLGLGLALFDGQKSSFQTRFNVHREVTPVELPNCNLVKGVDNGSEDLEILPNGLAFISSGLKYPGIMSFDPDKSGKILLMDLNEEDPVVLELGITGNTLDISSFNPHGISTFTDEDNTVYLLVVNHPDSSSTVEVFKFQEEEKSLLHLKTIRHKLLPSVNDIVAVGPEHFYATNDHYFADPYLRSWEMHLGLAWSFVTYYSPNDVRVVAEGFDFANGINISPDGKYVYIAELLAHKIHVYEKHANWTLTPLKSLDFDTLVDNISVDPVTGDLWVGCHPNGMRIFYYDPKNPPGSEVLRIQDILSEEPKVTVVYAENGTVLQGSTVAAVYKGKLLIGTVFHKALYCEL
modifications: rePON1-192R isozyme
notes: recombinant PON1 with arginine at position 192, generated to mimic the human R isozyme
Turning to B2, in data set [2], the “A2 (%) (amplitude of second, slow inactivation phase = HDL-bound fraction)” value was 90%. Also, the “k1^inactiv (first, fast phase)” value is 0.9 h⁻¹ in data set [2] and 5.5 h⁻¹ in data set [4]. In addition, the “k2^inactiv (second, slow phase)” value in data set [2] stood at 0.01 h⁻¹; in data set [4] it was 0.2 h⁻¹. Besides, the “reduction of Vmax compared to wt rePON1-192K” value in data set [3] (all the substrates tested) is 10-30%. The “Kapp (apparent affinity for HDL stimulation)” value in data set [3] (substrate TBBL 0.25 mM) turned out to be 0.4 ± 0.1 µM; in data set [3] (substrate phenyl acetate 1 mM), 0.8 ± 0.1 µM; in data set [3] (setting [6]) it was 0.9 ± 0.1 µM; in data set [3] (setting [7]), 1.5 ± 0.1 µM; in data set [3] (substrate δ-valerolactone 1 mM) it was 1.1 ± 0.1 µM. The “Vmax (%) activation factor” value was 579 ± 6% in data set [3] (substrate TBBL 0.25 mM); 200 ± 1% in data set [3] (substrate paraoxon 1 mM); 336 ± 4% in data set [3] (substrate phenyl acetate 1 mM); 1258 ± 21% in data set [3] (setting [6]); 1351 ± 20% in data set [3] (setting [7]); 1403 ± 13% in data set [3] (substrate δ-valerolactone 1 mM).
